Experimental data from article PMC4705692.
Where two headings read alike, the source gives them in different places.

T1: Orf1 (HTH_42 DNA glycosylase) (Streptomyces sahachiroi ATCC33158, UniProt B4XYC8 1-371)
T1 sequence: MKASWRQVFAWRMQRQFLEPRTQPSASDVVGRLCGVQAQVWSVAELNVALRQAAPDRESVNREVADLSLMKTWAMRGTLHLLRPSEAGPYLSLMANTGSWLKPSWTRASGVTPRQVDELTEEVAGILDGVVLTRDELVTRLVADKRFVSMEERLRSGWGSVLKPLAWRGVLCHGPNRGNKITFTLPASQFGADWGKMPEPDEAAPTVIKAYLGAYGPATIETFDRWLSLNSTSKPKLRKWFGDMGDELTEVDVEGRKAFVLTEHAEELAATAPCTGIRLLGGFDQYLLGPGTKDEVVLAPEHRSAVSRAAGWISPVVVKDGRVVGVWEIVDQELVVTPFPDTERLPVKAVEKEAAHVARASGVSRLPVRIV


Assays:
Experiment in all cases: EMSA
[1] = target: T1, Orf1 (HTH_42 DNA glycosylase)
[2] = target: T1, Orf1 (HTH_42 DNA glycosylase); remark: listed apart in the source
[3] = target: T1, Orf1 (HTH_42 DNA glycosylase); remark: listed apart in the source

Binder	binding result [2]	further results
GCC ODN azinomycin B-adducted (dsDNA, azinomycin B interstrand cross-link G-G at the GCC site (mixture with monoadduct possible)) DNA 1: TATTATTATGCCATTATTATT DNA 2: AATAATAATGGCATAATAATA		binding result [1]: binds
AAT ODN (dsDNA) DNA 1: TATTATTATATTATTATTATT DNA 2: AATAATAATAATATAATAATA	binds	
GCC ODN (dsDNA) DNA 1: TATTATTATGCCATTATTATT DNA 2: AATAATAATGGCATAATAATA		binding result [3]: binds
GAT ODN (dsDNA) DNA 1: TATTATTATGATATTATTATT DNA 2: AATAATAATATCATAATAATA	binds	
GCT ODN (dsDNA) DNA 1: TATTATTATGCTATTATTATT DNA 2: AATAATAATAGCATAATAATA	binds	
